The text below walks through data of article PMC2795164, “VEZF1 Elements Mediate Protection from DNA Methylation”.

For series [1], the target named is SP1, recombinant (Gallus gallus (chicken), UniProt A0A8V1A4P9 1-760). Description: EMSA; EMSA buffer, salt, pH and temperature not given in the material; competitors at 50-fold molar excess. The note with it: protein: recombinant; label: 32P (probe); blunt.
Series [2] has as its target SP3, recombinant (Gallus gallus (chicken), UniProt Q90WR8 1-771). Described as above. The note with it: protein: recombinant; label: 32P (probe); blunt.
Series [3] has as its target T1, VEZF1 (BGP1) (Gallus gallus (chicken), UniProt I6LDD9 1-555).
T1 sequence: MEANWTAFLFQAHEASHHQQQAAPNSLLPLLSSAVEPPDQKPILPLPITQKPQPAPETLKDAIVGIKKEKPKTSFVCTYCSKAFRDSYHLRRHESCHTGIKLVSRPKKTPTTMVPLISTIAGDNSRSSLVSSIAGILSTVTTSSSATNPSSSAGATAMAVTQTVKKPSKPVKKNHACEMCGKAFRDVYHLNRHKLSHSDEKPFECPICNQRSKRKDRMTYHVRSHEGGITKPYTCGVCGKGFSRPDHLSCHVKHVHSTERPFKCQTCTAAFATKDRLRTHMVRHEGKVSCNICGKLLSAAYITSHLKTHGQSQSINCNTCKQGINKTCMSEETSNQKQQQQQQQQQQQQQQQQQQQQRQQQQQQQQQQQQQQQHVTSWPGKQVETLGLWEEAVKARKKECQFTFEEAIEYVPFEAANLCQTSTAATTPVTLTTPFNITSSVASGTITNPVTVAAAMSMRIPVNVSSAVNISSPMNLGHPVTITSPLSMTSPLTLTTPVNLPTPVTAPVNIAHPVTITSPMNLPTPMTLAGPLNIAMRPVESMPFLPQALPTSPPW
The series is described as above. As to conditions: protein: ivt; label: 32P (probe); blunt.

Series [4] addresses T1, VEZF1 (BGP1). Described as above. As to conditions: protein: ivt; label: 32P (probe); blunt. The source holds these as a separate data set.
The target of series [5] is T2, ZF5, recombinant (Gallus gallus (chicken), UniProt Q92010 1-448, R436A).
T2 sequence: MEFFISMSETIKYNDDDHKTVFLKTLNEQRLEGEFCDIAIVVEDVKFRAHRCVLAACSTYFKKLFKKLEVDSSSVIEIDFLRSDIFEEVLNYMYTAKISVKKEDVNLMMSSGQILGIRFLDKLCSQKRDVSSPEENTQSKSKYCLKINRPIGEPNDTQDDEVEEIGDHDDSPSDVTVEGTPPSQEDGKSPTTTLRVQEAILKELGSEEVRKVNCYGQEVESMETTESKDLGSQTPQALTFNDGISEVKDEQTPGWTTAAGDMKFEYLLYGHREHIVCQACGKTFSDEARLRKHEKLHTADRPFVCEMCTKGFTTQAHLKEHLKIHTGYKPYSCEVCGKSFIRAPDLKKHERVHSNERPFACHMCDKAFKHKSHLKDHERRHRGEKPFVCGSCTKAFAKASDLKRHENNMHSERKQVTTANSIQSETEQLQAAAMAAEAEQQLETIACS
The series is described as above. As to conditions: protein: recombinant; label: 32P (probe); blunt.

Series [6] has as its target T2, ZF5, recombinant. The experiment in a line: EMSA; no specificity for the dG-dC string; EMSA buffer, salt, pH and temperature not given in the material; competitors at 50-fold molar excess. As to conditions: protein: recombinant; label: 32P (probe); blunt.

SP1, recombinant, sequence (A0A8V1A4P9 entry or part of it): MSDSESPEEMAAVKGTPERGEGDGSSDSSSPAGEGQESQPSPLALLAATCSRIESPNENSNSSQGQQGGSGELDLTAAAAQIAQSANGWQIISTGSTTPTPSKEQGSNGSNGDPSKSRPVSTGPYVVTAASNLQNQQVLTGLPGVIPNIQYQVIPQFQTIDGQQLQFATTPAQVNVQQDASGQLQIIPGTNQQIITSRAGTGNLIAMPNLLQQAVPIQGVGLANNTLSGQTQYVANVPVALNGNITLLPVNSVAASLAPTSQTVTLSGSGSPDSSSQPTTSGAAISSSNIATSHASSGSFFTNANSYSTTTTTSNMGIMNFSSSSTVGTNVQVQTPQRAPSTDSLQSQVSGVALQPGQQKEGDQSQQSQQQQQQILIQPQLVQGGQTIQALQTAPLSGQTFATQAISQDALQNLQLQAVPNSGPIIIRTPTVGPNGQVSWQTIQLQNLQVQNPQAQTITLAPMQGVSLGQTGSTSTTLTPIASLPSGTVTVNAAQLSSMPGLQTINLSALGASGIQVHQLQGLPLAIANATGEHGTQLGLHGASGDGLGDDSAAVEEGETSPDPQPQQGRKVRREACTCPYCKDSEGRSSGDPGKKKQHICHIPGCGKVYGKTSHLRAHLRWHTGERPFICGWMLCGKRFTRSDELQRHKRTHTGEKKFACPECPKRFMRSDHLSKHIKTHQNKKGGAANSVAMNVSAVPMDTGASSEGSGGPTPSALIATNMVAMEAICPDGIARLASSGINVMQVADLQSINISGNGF
SP3, recombinant, sequence (Q90WR8 whole entry): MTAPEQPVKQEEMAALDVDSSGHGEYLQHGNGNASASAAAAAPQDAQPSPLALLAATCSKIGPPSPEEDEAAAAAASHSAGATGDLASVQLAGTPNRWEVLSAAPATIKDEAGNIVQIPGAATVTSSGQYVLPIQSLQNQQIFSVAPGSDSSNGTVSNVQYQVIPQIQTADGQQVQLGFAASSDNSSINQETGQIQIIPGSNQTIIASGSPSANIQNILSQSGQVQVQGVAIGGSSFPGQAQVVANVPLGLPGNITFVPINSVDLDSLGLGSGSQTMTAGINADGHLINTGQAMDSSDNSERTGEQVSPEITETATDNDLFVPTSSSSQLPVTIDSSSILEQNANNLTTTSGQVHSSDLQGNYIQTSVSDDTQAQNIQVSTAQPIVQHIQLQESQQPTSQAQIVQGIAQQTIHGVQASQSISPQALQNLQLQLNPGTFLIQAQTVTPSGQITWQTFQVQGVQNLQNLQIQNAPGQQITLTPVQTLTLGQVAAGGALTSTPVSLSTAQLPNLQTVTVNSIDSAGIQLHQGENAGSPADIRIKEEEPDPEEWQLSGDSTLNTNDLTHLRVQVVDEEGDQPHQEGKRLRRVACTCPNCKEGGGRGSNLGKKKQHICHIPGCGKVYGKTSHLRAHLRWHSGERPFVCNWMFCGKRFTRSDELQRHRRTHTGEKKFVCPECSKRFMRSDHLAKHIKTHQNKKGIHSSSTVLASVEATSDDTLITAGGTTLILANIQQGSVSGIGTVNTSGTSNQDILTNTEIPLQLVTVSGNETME

B1: HS4 FV wt (dsDNA)
DNA 1: CCTGCAGACACCTGGGGGGATACGGGGAAAAAGCTTTAGG
DNA 2: CCTAAAGCTTTTTCCCCGTATCCCCCCAGGTGTCTGCAGG
As to B1, the binding result in series [1] and in series [2] was “no binding” throughout. Moreover, the binding signal in series [3] was ~5 fold lower affinity than FI and betaA sites.

B2: glo wt (betaA-globin promoter, G16) (dsDNA)
DNA 1: AATTGCAGAGCTGGGAATCGGGGGGGGGGGGGGGGCGGGTGGTGGTGTGG
DNA 2: CCACACCACCACCCGCCCCCCCCCCCCCCCCGATTCCCAGCTCTGCAATT
For B2, the binding result in series [1], in series [2] and in series [4] was “binds” each time.

B3: HS4 FI wt (dsDNA)
DNA 1: GGAGCTCACGGGGACAGCCCCCCCCCAAAGCCCCCAGGGA
DNA 2: TCCCTGGGGGCTTTGGGGGGGGGCTGTCCCCGTGAGCTCC
Regarding B3, the binding result in series [1] is on record as “binds”; in series [5] it was “no binding”; in series [2], “binds”; in series [4], “binds”.

B4: HS4 FIII wt (dsDNA)
DNA 1: AGGCGCGCCCCGGTCCGGCGCTCCCCCCGCATCCCCGAGCCGGGGCGCGCCT
DNA 2: AGGCGCGCCCCGGCTCGGGGATGCGGGGGGAGCGCCGGACCGGGGCGCGCCT
With B4, the results for the binding result in series [1], in series [2] and in series [6] were “no binding”, “no binding” and “binds”, respectively. The binding signal in series [3] is ~2 fold lower affinity than FI and betaA sites.
